Data taken from patent US20100261660A1 (published 2010).

What follows are binders tested against T1, Soluble CTLA-4-Ig (extracellular domain of human CTLA-4 fused to the Fc portion of human IgG1) (human, UniProt P16410 36-161, FITC-conjugated in the FACS binding assays) (assay: competitive FACS on transfected cells, FITC-sCTLA-4-Ig with biotin-sCD28-Ig; grade 0-2 of CTLA-4/CD28 ratio vs WT hB7-1).
T1 construct: extracellular domain; bought from R&D Systems; also called sCTLA-4-Ig; CTLA-4-Ig Fc; not shown: Fc portion of human IgG1
T1 sequence (P16410 36-161): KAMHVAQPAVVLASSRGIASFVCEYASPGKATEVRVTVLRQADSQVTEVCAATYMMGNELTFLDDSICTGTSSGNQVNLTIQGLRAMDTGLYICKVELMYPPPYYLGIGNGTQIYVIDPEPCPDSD

Binder | Binding Score
Round 2 CTLA4BP 2x1-e2 (ligand) VIHVTKEVKEVATLSCGHNVSDEELAQTRIHWQKEKKMVLTMMSGDMNIWPEYKNRTIFDITNNLSIVILALRPSDEGTYECVVLKYEKDAFKREHLAEVTLSVKADFPTPSISDFEIPPSNIRRIICSTSGGFPEPHLSWLENGEELNAINTTVSQDPGTELYTVSSKLDFNMTTNHSFMCLIKYGHLRVNQTFNWNTPKQEHFPDNLLPSAITLISANGIFVICCLTYCFAPRCRERRRNERLRRESIHPV | 1
Round 2 CTLA4BP 2x2-f3 (ligand) VIYVTKEVKEVATLSCGHNVSVEELAQTRIYWQKEKKMVLIMMSGDMNIWPEYKNRTIFDITNNLSIVILALRPSDEGTECVVLKYEKDAFKREHLAEVTLSVKADFPTPSISDFEIPPSNIRRIICSTSGGFPEPHLSWLENGEELNAINTTVSQDPGTELYTVSSKLDFNMTTNHSFMCLIKYGHLRVNQTFNWNTPKQEHFPDNLLPSWAITLISVNGIFVICCLTYCFAPRCRERRRNERLRRESVCPV | 1
Round 2 CTLA4 A-B4-6 (ligand) ITPKSVTKRVKETVMLSCDYNTSTEELTSLRIYWQKDSKMVLAILPGKVQVWPEYKNRTITDMNDNPRIVILALRLSDKGTYTCVVQKNENGSFRREHLTSVTLSIRADFPVPTINDLGNPSPNIRRLICSTSGGFPRPHLYWLENGEELNATNTTLSQDPETKLYMISSELDFNMTSNHSFLCLVKYGDLTVSQTFYWQESKPTPSANQHLTWTIIIPVSAFGISVIIAVILTCLTCRNAAIRRQRRENEVEMQSCSQSP | 1
Round 2 CTLA4 A-E2-6 (ligand) ITPKSVTKRVKETVMLSCDYNTSTEELTSLRIYWQKDSKMVLAILPGKVQVWPEYKNRTITDMNDNPRIVILALRLSDSGTYTCVVQKNENGSFRREHLTSVRLMIRADFPVPTINDLGNPSPNIRRLICSTSGGFPRPHLYWLENGEELNATNTTLPQDPETKLYMISSELDFNMTSNHSFLCLVKYGDLTVSQTFYWQESKPTPSANQHLTWTIIIPVSAFGISVIIAVILTCLTCRNAAIRRQRRENEVEMQSCSQSP | 1
Round 2 CTLA4 A-F1-6 (ligand) ITPKSVTKRVKETVMLSCDYSTSTEELTSLRIYWQKDSKMVLAILPGKVQVWPEYKNRTITDMNDNPRIVILALRLSDKGTYTCVVQKNENGSFRREHLTSVRLMIRADFPVPTINDLGNPSPNIRRLICSTSGGFPRPHLYWLENGEELNATNTTLSQDPETKLYMISSELDFNMTSNHSFLCLVKYGDLTVSQTFYWQESKPTPSANQHLTWTIIIPVSAFGISVIIAVILTCLTCRNAAIRRQRRENEVEMQSCSQSP | 1
Round 2 CTLA4 A-F10-1 (ligand) ITPKSVTKRVKETVMLSCDYNTSTEELTSLRIYWQKDSKMVLAILPGKVQVWPEYKNRTITDMNDNPRIVILALRLSDKGTYTCVVQKNENGSFRREHLTSVTLSIRADFPVPTINDLGNPSPNIRRLICSTSGGFPRPHLYWLENGEELNATNTTLSQDPETKLYMISSELDFNMTSNHSFLCLVKYGDLTVSQTLYWQESKPTPSANQHLTWTIIIPVSAFGISVIIAVILTCLTCRNAAIRRQRRENEVEMQSCSQSP | 1
Round 2 CTLA4 A-H3-6 (ligand) GISQVTKSVKEMAALSCDYNISIDELARMRIYWQKDQQMVLSIISGQVEVWPEYKNRTFPDIINNLSLMILALRLSDKGTYTCVVQKNENGSFRREHLTSVTLSIRADFPVPSINDLGNPSPNIRRLICSTSGGFPRPHLYWLENGEELNATNTTLSQDPETKLYMISSELDFNMTSNHSFLCLVKYGDLTVSQTFYWQESKPTPSANQHLTWTIIIPVSAFGISVIIAVILTCLTCRNAAIRRQRRENEVEMQSCSQSP | 1
Round 2 CTLA4BP 2x4-g9 (ligand) VIHVTKEVKEVATLSCGHNVSVEELAQTRIYWQKDKKMVLTMMSGDMNIWPEYKNQTIFDITNNLSIVILALRPSDEGTYECVVLKYEKDAFKQEHLAEVMLSVKADFPTPSISDFEIPPSNIRRIICSTSGGFPEPRLAWMEDGEELNAISTTVSQDPGTELCTVSSKLDFNMTTNHSFMCLIRYGHLRVNQTFNWNTPKQEHFPDNLLPSWAITLISVKGIFVICCLTYCFAPRGRERKSNGRLRRESVHPV | 1
Round 2 CTLA4BP 2x3-h2 (ligand) VIHVTKEVKEVATLSCGHNVSVEELAQTRIYWQKEKKMVLTMMSGDMNIWPEYKNRTIFDITNNLSIVILALRPSDEGTYECVVLKYEKDAFKREHLAEVMLSVKADFPTPSISDFEIPPSNIRRIICSTPGGFPEPRLAWMEDGEELNAISTTVSQDPGTELYAVSSKLDFNMTTNHSFMCLIKYGHLRVNQTFNWNTTKQEHFPDNLLPSWAITLISVKGIFVICCLTYCFAPRWRERKSNERLRRESVRPV | 0
Round 2 CTLA4 A-H4-5* (ligand) ITPKSVTKRVKETVMLSCDYSTSTEELTSLRIYWQKDSKMVLAILPGKVQVWPEYKNRTITDMNDNPRIVILALRLSDKGTYTCVVQKNENGSFRREHLTSVTLSIRADFPVPSITDIGHPAPNVKRIRCSASGGFPEPRLYWLENGEELNATNTTVSQDPGTELYMISSELDFNVTNNHSIVCLIKYGELSVSQIFPWSKPKQEPPIDQLPFWVIIPVSGALVLTAVVLYCLACRHVARWKRTRRNEETVGTERLSPIYLGSAQSSG | 1
Round 2 CTLA4BP 2x1-c9 (ligand) VIHVTKEVKEVATLSCGHNVSAEELAQTRIYWQKEKKMVLTMMSGDMNIWPEYKNRTIFDITNNLSIVILALRPSDEGTYECVVLEYEKDAFKREHLAEVMLSVKADFPTPSITDFEIPTSNIRRIICSTSGGFPEPRLAWMEDGEELNAISTTASQDPETELYTVSSKLDFNMTTNHSFMCLIKYGHLRVNQTFNWNTPKQEHFPDNLLPSWAITLISVNGIFVICCLTHCFAPRCRERRRNERLRRESVCPV | 1

Further lines, results first:

Binding Score | Binder
2 | Round 2 CTLA4BP-5x4-1f (ligand) VIHVTKEVKEVATLSCGHNVSVEELAQTRIHWQKEKKMVLTMMSGDMNIWPEYKNRTIFDITNNLSIVILALRPSDEGTYECVVLKYEKDAFKREHLAEVMLSVKADFPTPSISDFEIPTSNIRRIICSTSGGFPEPHLFWLENGEELNAINTTVSQDPETELYTVSSKLDFNMTTNHSFMCLIKYGHLRVNQTFNWNTPKQEHFPDNLLPSWAITLISVNGIFVICCLTYCFAPRCRERRRNERLRRESVCPV
2 | Round 2 CTLA4BP-5x5-6e (ligand) VIHVTKEVKEVATLSCGHNVSVEELAQTRIHWQKEKKMVLTMMSGDMNIWPEYKNRTIFDITNNLSIVILALRPSDEGTYECVVLKYEKDAFKREHLAEVMLSVKADFPTPSITDFEIPPSNIRRIICSTSGGFPEPHLSWLENGEELNAISTTVSQDPETELYTVSSKLDFNMTTNHSFMCLIKYGHLRVNQTFNWNTTKQEHFPDNLLPSWAITLISANGIFVICCLTHCFAPRCRERKRNERLRRESVRPV
2 | Round 2 CTLA4BP-5x8-1f (ligand) VIHVTKEVKEVATLSCGHNVSVEELAQTRIHWQKEKKMVLTMMSGDMNIWPEYKNRTIFDITNNLSIVILALRPSDEGTYECVVLKYEKDAFKREHLAEVMLSVKADFPTPSITDFEIPPSNIRRIICSASGGFPEPHLFWLENGEELNAINTTVSQDPETELYAVSSKLDFNMTTNHSFMCLIRYGHLRVNQTFNWNTPKQEHFPDNLLPSWAITLISVNGIFVICCLTYCFAPRCRERKSNERLRRESVRPV
2 | Round 2 CTLA4BP-5x4-11d (ligand) VIHVTKEVKEVATLSCGLNVSVEELAQTRIHWQKEKKMVLTMMSGDMNIWPEYKNRTIFDITNNLSIVILALRPSDEGTYECVVLKYDKDAFKREHLAEVTLSVKADFPTPSISDFEIPPSNIRRIICSTSGGFPEPHLSWLENGEELNAINTTVSQDPETELYTVSSKLDFNMTANHSFVCLIKYGHLRVNQTFNWNTPKQEHFPDNLLPSWAITLISVNGIFVICCLTYRFAPRCRERKSNERLRRESVRPV
2 | Round 2 CTLA4BP-5x9-12c (ligand) VIHVTKEVKEVATLSCGHNVSVEELAQTRIHWQKEKKMVLTMMSGDMNIWPEYKNRTIFDITNNLSIVILALRPSDEGTYECVVLKYEKDAFKREHLAEVMLSVKADFPTPSITDFEIPPSNIRRIICSTSGGFPEPHLSWLENGEELNAINTTASQDPETELYTVSSKLDFNMTTNHSFMCLIKYGHLRVNQTFNWNTPKQEHFPDNLLPSWAITLISVNGIFVICCLTYCFAPRCRERKSNERLRRESVRPV
2 | Round 2 CTLA4BP-5x4-12c (ligand, residues 1-34 left out as the signal peptide; also called CTLA-4BP 5×4-12c; clone R2 CTLA-4BP 5×4-12c) VIHVTKEVKEVATLSCGHNVSVEELAQTRIHWQKEKKMVLTMMSGDMNIWPEYKNRTIFDITNNLSIVILALRPSDEGTYECVVLKYEKDAFKREHLAEVMLSVKADFPTPSISDFEIPPSNIRRIICSTSGGFPEPHLFWLENGEELNAINTTVSQDPETELYTVSSKLDFNMTTNHSFMCLIKYGHLRVNQTFNWNTPKQEHFPDNLLPSWAITLISANGIFVICCLTYRFAPRCRERKSNETLRRESVRPV
2 | Round 2 CTLA4BP-5x6-9d (ligand) VIHVTKEVKEVATLSCGHNVSVEELAQTRIHWQKEKKMVLTMMSGDMNIWPEYKNRTIFDITNNLSIVILALRPSDEGTYECVVLKYEKDAFKREHLAEVMLSVKADFPTPSISDFEIPTSNIRRIICSTSGGFPEPHLSWLENGEELNAINTTVSQDPETELYTVSSKLDFNMTANHSFVCLIKYGHLRVNQTFNWNTPKQEHFPDNLLPSWAITLISVNGIFVICCLTYCFAPRCRERRRNERLRRESVRPV
2 | Round 2 CTLA4BP-5x5-2e (ligand) VIHVTKEVKEVATLSCGLNVSVEELAQTRIHWQKEKKMVLTMMSGDMNIWPEYKNRTIFDITNNLSIVILALRPSDEGTYECVVLKYEKDAFKREHLAEVMLSVKADFPTPSISDFEIPPSNIRRIICSTSGGFPEPHLSWLENGEELNAINTTVSQDPETELYAVSSKLDFNMTTNHSFMCLIKYGHLRVNQTFNWNTPKQEHFPDNLLPSWAITLISVNGIFVICCLTYCFAPRCRERRRNETLRRESVRPV
